Source: PMC4883009 (Biochemistry, 2016)

Tests used:
[1] = tested on: bsSecA783 F652-GS(10)-PhoAss Cys22-IAEDANS; test: Signal peptide competition-binding assay by FRET; set-up: species or system B. subtilis; details: 5-fold molar excess of unlabeled SP22; data not shown
[2] = tested on: bsSecA783 F652-GS(5)-KRRLamBss Cys29-IAEDANS; test: Signal peptide competition-binding assay by FRET; set-up: species or system B. subtilis; details: 5-fold molar excess of unlabeled SP22; data not shown
[3] = target: E. coli alkaline phosphatase signal peptide SP22, IANBD-labeled (E. coli); test: fluorescence polarisation
IANBD-labeled SP22 = test: SecA-signal peptide binding affinity by fluorescence anisotropy; set-up: species or system E. coli

Row | Molecule | Kd [3] [µM] | other results
1 | MKQSTIALALLPLLFTPVTKAC-NH2 [SP22] | – | reduction of energy transfer efficiency [1]: approximately 50%; reduction of energy transfer efficiency [2]: approximately 50%
2 | bsSecA783-KRRLamBss (from UniProt P28366 1-783) | 13 | –
3 | bsSecA783-PhoAss (from UniProt P28366 1-783) | 4.5 | –
4 | bsSecA841 (from UniProt P28366 1-841) (enzyme) | 1.9 | –
5 | bsSecA841-KRRLamBss (from UniProt P28366 1-841) | 14 | –
6 | bsSecA841-PhoAss (from UniProt P28366 1-841) | 4.6 | –
7 | bsSecA783: carboxy-terminally truncated B. subtilis SecA lacking the CTL domain (protein, UniProt P28366 1-783, looked up, fragment) MLGILNKMFDPTKRTLNRYEKIANDIDAIRGDYENLSDDALKHKTIEFKERLEKGATTDDLLVEAFAVVREASRRVTGMFPFKVQLMGGVALHDGNIAEMKTGEGKTLTSTLPVYLNALTGKGVHVVTVNEYLASRDAEQMGKIFEFLGLTVGLNLNSMSKDEKREAYAADITYSTNNELGFDYLRDNMVLYKEQMVQRPLHFAVIDEVDSILIDEARTPLIISGQAAKSTKLYVQANAFVRTLKAEKDYTYDIKTKAVQLTEEGMTKAEKAFGIDNLFDVKHVALNHHINQALKAHVAMQKDVDYVVEDGQVVIVDSFTGRLMKGRRYSEGLHQAIEAKEGLEIQNESMTLATITFQNYFRMYEKLAGMTGTAKTEEEEFRNIYNMQVVTIPTNRPVVRDDRPDLIYRTMEGKFKAVAEDVAQRYMTGQPVLVGTVAVETSELISKLLKNKGIPHQVLNAKNHEREAQIIEEAGQKGAVTIATNMAGRGTDIKLGEGVKELGGLAVVGTERHESRRIDNQLRGRSGRQGDPGITQFYLSMEDELMRRFGAERTMAMLDRFGMDDSTPIQSKMVSRAVESSQKRVEGNNFDSRKQLLQYDDVLRQQREVIYKQRFEVIDSENLREIVENMIKSSLERAIAAYTPREELPEEWKLDGLVDLINTTYLDEGALEKSDIFGKEPDEMLELIMDRIITKYNEKEEQFGKEQMREFEKVIVLRAVDSKWMDHIDAMDQLRQGIHLRAYAQTNPLREYQMEGFAMFEHMIESIEDEVAKFVMKAEIENN | – | higher affinity for SP22 compared to full-length bsSecA841 (IANBD-labeled SP22): approximately 4 fold
